Patent publication US8697369B2, “Method for screening a test substance for activating a receptor associated with FGF 21 activity” (National Institute of Advanced Industrial Science and …, priority 2007, dated 2014)

Key:
[1] = molecular target: T1, humanized FGFR3c/humanized betaKlotho (hβKlotho)-expressing cells (Homo sapiens, UniProt P22607+Q86Z14, A441S/A461E/A470D/A499P/A500N/A559S/A717S/A734V/A765M/C582S/D512S/D516E/D576E/D580N/D722E/D758Q/D785E/DEL405-414/E426D/E447G/E729D/E768D/F566Y/F579Y/F591S/F767L/G446S/G448T/G548D/G773S/G774F/H721N/I440P/I494L/I698V/I726M/INS417HSQMAVHKLAKSI/INS423TV/INS780T/K420R/K464R/K501R/K583H/L398M/L425A/L457Y/L554I/L645I/L752V/M488L/N428S/N434G/N453G/N644H/P401G/P402T/P436L/P502V/P584N/P778R/Q611K/Q775P/R397K/R399K/R416D/R498K/R568Q/S432N/S468P/S578C/S781C/T435V/T450M/T473V/T504K/T581P/T590S/T753A/T757N/V503T/V523I/V642I/V670I/V751I/V754L); assay: DNA synthesis in humanized FGFR3c/humanized betaKlotho-expressing BaF3 cells; assay type: cell-based; details: humanized FGFR3c and humanized betaKlotho; 10 μg/ml heparin
T1 construct: expressed in transfected cells; host or cells: BaF3 (mouse pro-B) cells
T1 sequence (P22607 other isoform, or with tags, fused parts or gaps with the stated changes): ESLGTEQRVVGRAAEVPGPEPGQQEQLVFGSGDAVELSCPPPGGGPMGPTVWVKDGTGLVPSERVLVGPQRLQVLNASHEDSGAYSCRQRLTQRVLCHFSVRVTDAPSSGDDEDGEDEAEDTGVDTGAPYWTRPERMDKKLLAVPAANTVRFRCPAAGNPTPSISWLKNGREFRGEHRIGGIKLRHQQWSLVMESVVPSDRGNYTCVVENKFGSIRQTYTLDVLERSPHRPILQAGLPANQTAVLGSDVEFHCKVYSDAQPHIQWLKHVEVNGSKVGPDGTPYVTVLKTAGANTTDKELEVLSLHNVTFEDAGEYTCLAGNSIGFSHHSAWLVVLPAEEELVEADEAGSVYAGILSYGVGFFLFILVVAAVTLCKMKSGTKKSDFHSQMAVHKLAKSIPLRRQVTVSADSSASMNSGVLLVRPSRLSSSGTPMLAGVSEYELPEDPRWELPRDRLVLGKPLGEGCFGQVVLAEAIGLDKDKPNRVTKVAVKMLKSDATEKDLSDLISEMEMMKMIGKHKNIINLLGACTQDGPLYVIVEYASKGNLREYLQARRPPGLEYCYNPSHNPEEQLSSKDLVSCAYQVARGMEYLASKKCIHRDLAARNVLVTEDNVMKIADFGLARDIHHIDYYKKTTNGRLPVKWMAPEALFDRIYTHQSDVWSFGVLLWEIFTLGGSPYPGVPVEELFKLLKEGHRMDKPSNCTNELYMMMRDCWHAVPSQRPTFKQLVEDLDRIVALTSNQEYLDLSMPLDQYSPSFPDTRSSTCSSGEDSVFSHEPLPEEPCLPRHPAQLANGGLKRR
T1 sequence (Q86Z14 whole entry, stated change not applied): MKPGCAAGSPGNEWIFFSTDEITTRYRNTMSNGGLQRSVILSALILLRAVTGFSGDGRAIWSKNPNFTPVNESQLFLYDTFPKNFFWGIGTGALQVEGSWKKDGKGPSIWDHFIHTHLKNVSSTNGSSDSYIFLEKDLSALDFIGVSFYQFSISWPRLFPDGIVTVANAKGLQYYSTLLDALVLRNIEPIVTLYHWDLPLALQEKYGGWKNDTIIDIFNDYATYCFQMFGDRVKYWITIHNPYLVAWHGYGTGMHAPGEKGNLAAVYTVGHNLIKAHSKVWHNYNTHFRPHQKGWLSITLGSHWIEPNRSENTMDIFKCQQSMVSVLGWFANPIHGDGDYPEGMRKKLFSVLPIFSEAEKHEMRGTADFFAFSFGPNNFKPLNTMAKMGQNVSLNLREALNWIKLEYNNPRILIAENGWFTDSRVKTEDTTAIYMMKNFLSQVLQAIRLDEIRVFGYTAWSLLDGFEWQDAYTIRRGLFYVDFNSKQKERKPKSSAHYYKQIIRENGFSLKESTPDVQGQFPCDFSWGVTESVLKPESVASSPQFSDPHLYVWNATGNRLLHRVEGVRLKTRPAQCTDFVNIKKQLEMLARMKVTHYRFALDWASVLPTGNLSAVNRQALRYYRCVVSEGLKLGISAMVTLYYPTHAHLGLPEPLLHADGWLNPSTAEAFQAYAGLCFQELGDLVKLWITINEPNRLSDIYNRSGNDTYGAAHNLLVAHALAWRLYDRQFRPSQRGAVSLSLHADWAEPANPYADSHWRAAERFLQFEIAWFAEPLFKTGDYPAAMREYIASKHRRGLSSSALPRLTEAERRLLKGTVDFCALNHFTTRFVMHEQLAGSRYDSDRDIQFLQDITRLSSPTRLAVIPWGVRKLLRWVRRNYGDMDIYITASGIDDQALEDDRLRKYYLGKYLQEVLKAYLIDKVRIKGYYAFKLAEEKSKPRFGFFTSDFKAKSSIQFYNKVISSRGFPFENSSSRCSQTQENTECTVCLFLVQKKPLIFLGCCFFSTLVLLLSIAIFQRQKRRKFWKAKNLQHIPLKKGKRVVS
Experimental: The homology between human FGFR3 and mouse FGFR3 at the amino acid sequence level is 93%. […] The cDNA of humanized FGFR3c was prepared from a commercially available human RNA sample (Takara Bio Inc.) by PCR. The sequence of its intracellular portion was substituted with the sequence of humanized FGFR1, and it was then introduced into an expression vector having an SRalpha promoter (pSRalpha). The FGFR3c expression vector was introduced into BaF3 cells by an electroporation method, so as to obtain FGFR3c-expressing BaF3 cells as G418-resistant clones. In the case of FGFR3c/betaKlotho-co-expressing cells, a betaKlotho expression vector was introduced into the FGFR3c-expressing BaF3 cells, so as to obtain the aforementioned cells as Puromycin-resistant clones. In the presence of heparin, humanized FGF21 was added in various types of concentrations to FGFR3c-expressing cells or FGFR3c/betaKlotho-co-expressing cells, and the amount of DNA synthesized was then measured.

[2] = molecular target: T2, BaF3 cells that had co-expressed FGFR1c and Klotho (Mus musculus, UniProt O35082+P16092); assay: DNA synthesis in BaF3 cells co-expressing FGFR1c and Klotho; assay type: cell-based; details: presence or absence of heparin
T2 construct: the entire-length cDNA of mouse FGFR1c had been cloned; expressed in transfected cells; host or cells: BaF3 (mouse pro-B) cells
T2 sequence (P16092 22-822): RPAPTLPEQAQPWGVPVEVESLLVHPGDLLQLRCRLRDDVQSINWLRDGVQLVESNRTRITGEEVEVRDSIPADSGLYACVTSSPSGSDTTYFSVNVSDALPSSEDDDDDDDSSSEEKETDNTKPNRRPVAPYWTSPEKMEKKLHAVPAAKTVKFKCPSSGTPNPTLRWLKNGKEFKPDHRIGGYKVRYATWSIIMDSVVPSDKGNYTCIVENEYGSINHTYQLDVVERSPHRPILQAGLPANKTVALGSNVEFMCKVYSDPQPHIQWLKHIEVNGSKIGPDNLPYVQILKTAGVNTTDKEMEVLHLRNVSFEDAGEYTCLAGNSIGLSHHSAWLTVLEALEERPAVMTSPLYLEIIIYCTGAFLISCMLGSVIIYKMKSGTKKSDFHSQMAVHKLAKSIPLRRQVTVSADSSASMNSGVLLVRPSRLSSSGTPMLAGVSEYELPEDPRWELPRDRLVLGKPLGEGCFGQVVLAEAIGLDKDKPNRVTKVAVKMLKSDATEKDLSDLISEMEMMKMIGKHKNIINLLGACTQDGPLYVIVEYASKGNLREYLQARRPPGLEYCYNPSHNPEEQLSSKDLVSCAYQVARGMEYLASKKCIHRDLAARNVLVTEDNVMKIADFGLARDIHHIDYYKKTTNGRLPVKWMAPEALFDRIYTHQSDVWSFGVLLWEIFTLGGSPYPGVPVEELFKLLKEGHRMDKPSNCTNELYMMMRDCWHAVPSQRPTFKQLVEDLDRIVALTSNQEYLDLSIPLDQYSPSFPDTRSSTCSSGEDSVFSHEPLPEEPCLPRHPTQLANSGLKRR
T2 sequence (O35082 35-1014): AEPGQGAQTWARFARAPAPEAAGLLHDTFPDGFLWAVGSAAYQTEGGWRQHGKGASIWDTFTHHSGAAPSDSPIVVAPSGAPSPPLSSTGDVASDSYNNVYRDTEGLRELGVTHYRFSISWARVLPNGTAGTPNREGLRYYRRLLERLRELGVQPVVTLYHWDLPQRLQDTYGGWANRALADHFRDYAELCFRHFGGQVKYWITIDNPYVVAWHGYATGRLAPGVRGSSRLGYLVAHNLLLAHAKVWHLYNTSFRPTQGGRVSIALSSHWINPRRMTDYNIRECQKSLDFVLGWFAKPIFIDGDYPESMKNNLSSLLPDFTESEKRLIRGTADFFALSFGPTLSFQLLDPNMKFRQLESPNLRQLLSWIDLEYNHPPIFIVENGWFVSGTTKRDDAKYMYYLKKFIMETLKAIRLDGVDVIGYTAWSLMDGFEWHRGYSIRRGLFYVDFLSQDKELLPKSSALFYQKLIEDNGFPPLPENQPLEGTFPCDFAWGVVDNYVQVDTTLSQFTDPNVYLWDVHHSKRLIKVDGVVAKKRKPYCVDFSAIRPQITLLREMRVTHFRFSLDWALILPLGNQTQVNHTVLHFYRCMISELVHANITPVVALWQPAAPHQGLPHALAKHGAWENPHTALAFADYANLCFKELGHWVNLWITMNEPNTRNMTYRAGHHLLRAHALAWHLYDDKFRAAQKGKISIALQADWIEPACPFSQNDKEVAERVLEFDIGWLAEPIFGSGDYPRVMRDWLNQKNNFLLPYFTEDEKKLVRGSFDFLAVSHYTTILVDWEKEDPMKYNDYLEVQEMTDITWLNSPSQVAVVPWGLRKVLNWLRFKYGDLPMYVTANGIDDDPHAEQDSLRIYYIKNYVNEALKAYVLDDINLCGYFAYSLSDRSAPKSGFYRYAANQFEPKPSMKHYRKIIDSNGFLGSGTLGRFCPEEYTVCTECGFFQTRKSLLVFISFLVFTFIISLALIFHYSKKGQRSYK
Experimental: Specifically, BaF3 cell that had co-expressed FGFR1c and betaKlotho and BaF3 cells that had co-expressed FGFR1c and Klotho were prepared by the same transformation method and under the same culture conditions as those applied in Example 4. Thereafter, FGF21 and FGF23 were added to both types of transformed cells in the presence or absence of heparin, and the amount of DNA synthesized was then measured.

## FGF1: conventional FGF used as a control
[1]
  amount of DNA synthesized (thymidine incorporation): promoted the DNA synthesis

B1: FGF21: fibroblast growth factor 21; mouse-derived protein used in Examples 1-7 and 10-13 (protein)
chain: AYPIPDSSPLLQFGGQVRQRYLYTDDDQDTEAHLEIREDGTVVGAAHRSPESLLELKALKPGVIQILGVKASRFLCQQPDGALYGSPHFDPEACSFRELLLEDGYNVYQSEAHGLPLRLPQKDSPNQDATSWGPVRFLPMPGLLHEPQDQAGFLPPEPPDVGSSDPLSMVEPLQGRSPSYAS
[2]
  amount of DNA synthesized: did not react with FGFR1c
